From paper PMC10641286
Read-outs that look alike come from different tables or passages of the source.

Tests used:
cathepsin G [1] = biological target: cathepsin G (UniProt P08311)
chymase [2] = biological target: chymase (UniProt P23946)
trypsin IV = trypsin IV (UniProt P35030)
chymase [3] = biological target: chymase (UniProt P23946); remark: listed apart in the source
cathepsin G [4] = biological target: cathepsin G (UniProt P08311); test: stoichiometry of inhibition (residual enzymatic activity, colorimetric substrate); various concentrations of rIxsS41 (molar ratios 0-10) with a constant concentration of protease, 1 h at 37°C; linear regression of the inhibitory curve; details: scale: molecules of rIxsS41 per molecule of protease
chymase [5] = biological target: chymase (UniProt P23946); test: as above; details: scale: molecules of rIxsS41 per molecule of protease
cathepsin G [6] = biological target: cathepsin G (UniProt P08311); test: second-order rate constant of inhibition, discontinuous method (residual enzymatic activity); rIxsS41 25-300 nM (chymase) or 100-1600 nM (cathepsin G) pre-incubated 0-15 min at 37°C with constant protease (0.1 µg); kobs plotted against rIxsS41
chymase [7] = biological target: chymase (UniProt P23946); test: as above
cathepsin G [8] = biological target: cathepsin G (UniProt P08311); test: as above; remark: listed apart in the source
chymase [9] = biological target: chymase (UniProt P23946); test: as above; remark: listed apart in the source

Chain of UniProt P23946 (P23946 22-247): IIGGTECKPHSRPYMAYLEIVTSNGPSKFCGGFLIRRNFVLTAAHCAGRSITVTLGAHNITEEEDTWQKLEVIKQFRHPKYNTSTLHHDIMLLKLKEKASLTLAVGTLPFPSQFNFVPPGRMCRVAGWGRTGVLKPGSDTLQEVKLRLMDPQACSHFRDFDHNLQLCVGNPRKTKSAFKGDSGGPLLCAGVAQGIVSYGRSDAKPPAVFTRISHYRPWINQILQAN
Chain of UniProt P08311 (P08311 21-244): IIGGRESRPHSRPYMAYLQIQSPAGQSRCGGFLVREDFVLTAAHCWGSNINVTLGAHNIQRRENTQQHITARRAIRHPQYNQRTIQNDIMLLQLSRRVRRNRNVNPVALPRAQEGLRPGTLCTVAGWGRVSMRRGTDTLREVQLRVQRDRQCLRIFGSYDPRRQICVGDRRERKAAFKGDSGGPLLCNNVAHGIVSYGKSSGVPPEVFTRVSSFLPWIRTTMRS
Chain of UniProt P35030 (P35030 81-304): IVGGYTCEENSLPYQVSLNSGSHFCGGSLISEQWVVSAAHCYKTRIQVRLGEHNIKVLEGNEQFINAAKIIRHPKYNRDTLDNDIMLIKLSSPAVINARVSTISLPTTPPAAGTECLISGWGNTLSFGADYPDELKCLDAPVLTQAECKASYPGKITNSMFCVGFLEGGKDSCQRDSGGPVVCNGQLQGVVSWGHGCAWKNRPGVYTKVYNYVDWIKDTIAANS

recombinant Ixodes scapularis nymph tick saliva serpin 41 (rIxsS41) (natural protein)
inhibition of enzymatic activity (chromogenic substrate hydrolysis), rIxsS41 1 µM, cathepsin G 154.4 nM, pre-incubated 15 min at 37°C (cathepsin G [1]): 100%
inhibition of enzymatic activity (chromogenic substrate hydrolysis), rIxsS41 1 µM, chymase 34.2 nM, pre-incubated 15 min at 37°C (chymase [2]): 100%
inhibition of enzymatic activity (chromogenic substrate hydrolysis), rIxsS41 1 µM, chymotrypsin 25.7 nM, pre-incubated 15 min at 37°C (chymotrypsin): 100%
inhibition of enzymatic activity (chromogenic substrate hydrolysis), rIxsS41 1 µM, pancreatic trypsin 0.5 nM, pre-incubated 15 min at 37°C (pancreatic trypsin): 100%
inhibition of enzymatic activity (chromogenic substrate hydrolysis), rIxsS41 1 µM, thrombin 19.8 nM, pre-incubated 15 min at 37°C (thrombin): 100%
inhibition of enzymatic activity (chromogenic substrate hydrolysis), rIxsS41 1 µM, trypsin IV 12.5 nM, pre-incubated 15 min at 37°C (trypsin IV): 100%
C48/80-induced (chymase-mediated) paw edema in BALB/c mice, co-injection of C48/80 (1 µg) with rIxsS41 (25 µg); the chymase is the mouse's own (chymase [3]): 85%
stoichiometry of inhibition (SI) (cathepsin G [4]): 2.2
stoichiometry of inhibition (SI) (chymase [5]): 2.8
ka (second-order rate constant of inhibition) (cathepsin G [6]): 2400 M⁻¹ s⁻¹
ka (second-order rate constant of inhibition) (chymase [7]): 6600 M⁻¹ s⁻¹
ka (second-order rate constant of inhibition) (cathepsin G [8]): 1700 M⁻¹ s⁻¹
ka (second-order rate constant of inhibition) (chymase [9]): 2400 M⁻¹ s⁻¹
